In paper PMC8041823, “Structural comparison of Acinetobacter baumannii β-ketoacyl-acyl carrier protein reductases in fatty acid and aryl polyene biosynthesis” (Scientific Reports, 2021):

Assays:
[1] = target: Acinetobacter baumannii ApeQ (β-ketoacyl-ACP reductase of the aryl polyene biosynthesis gene cluster) (Acinetobacter baumannii (clinical CRAB strain C1)); experiment: crystal structure; apo AbApeQ, space group P3_(1)2, four molecules in the asymmetric unit
[2] = target: Acinetobacter baumannii ApeQ (β-ketoacyl-ACP reductase of the aryl polyene biosynthesis gene cluster) (Acinetobacter baumannii (clinical CRAB strain C1)); experiment: crystal structure; AbApeQ co-crystallised with NADPH (1:3 molar ratio), space group P2_(1), four molecules in the asymmetric unit
[3] = target: Acinetobacter baumannii FabG (β-ketoacyl-ACP reductase of the fatty acid synthase gene cluster) (Acinetobacter baumannii (clinical CRAB strain C1)) (UniProt V5VHN7); experiment: crystal structure; apo AbFabG, 1.79 Å, four molecules in the asymmetric unit

Work on “Acinetobacter baumannii ApeQ (β-ketoacyl-ACP reductase of the aryl polyene biosynthesis gene cluster) (enzyme)” yielded a stoichiometry N [1] of 4 and a stoichiometry N [2] of 4.

“Acinetobacter baumannii FabG (β-ketoacyl-ACP reductase of the fatty acid synthase gene cluster) (from UniProt V5VHN7 1-244) (enzyme)” gave a stoichiometry N [3] of 4.
